Experimental data from patent US12723106 (dated 2026).
Like-named read-outs stand apart in the source and are kept apart here.

T1: human IL4 (human, UniProt P05112)
T1 chain: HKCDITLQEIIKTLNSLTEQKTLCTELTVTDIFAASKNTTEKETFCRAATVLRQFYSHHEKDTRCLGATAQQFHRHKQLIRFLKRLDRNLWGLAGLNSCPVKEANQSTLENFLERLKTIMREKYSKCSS


Experiments:
human IL4 [1] = molecular target: T1, human IL4; experiment: SPR
human IL4 [2] = molecular target: T1, human IL4; experiment: SPR

Row | Binder | Kd (human IL4 [1]) [pM] | Kd (human IL4 [2]) [pM]
1 | sLC-Tandem-(anti-IL4xanti-IL13)-ΔPCL1-huIgG1, IL4 arm (antibody) chain 1: not shown chain 2: DIQMTQSPASLSVSVGDTITLTCHASQNIDVWLSWFQQKPGNIPKLLIYKASNLHTGVPSRFSGSGSGTGFTLTISSLQPEDIATYYCQQAHSYPFTFGGGTKLEIKRTVAAPSVFIFPPSDEQLKSGTASVVCLLNNFYPREAKVQWKVDNALQSGNSQESVTEQDSKDSTYSLSSTLTLSKADYEKHKVYACEVTHQGLSSPVTKSFNRGEC | 2.29 | 2.75
2 | Tandem-(anti-IL4xanti-IL13)-huIgG1, IL4 arm (antibody) chain 1: not shown chain 2: DIQMTQSPASLSVSVGDTITLTCHASQNIDVWLSWFQQKPGNIPKLLIYKASNLHTGVPSRFSGSGSGTGFTLTISSLQPEDIATYYCQQAHSYPFTFGGGTKLEIKRTVAAPSVFIFPPSDEQLKSGTASVVCLLNNFYPREAKVQWKVDNALQSGNSQESVTEQDSKDSTYSLSSTLTLSKADYEKHKVYACEVTHQGLSSPVTKSFNRGEC | 2.32 | –
3 | sLC-Tandem-(anti-IL4xanti-IL13)-His8-PCL1-huIgG1 with Furin-KDEL, IL4 arm (antibody) chain 1: not shown chain 2: DIQMTQSPASLSVSVGDTITLTCHASQNIDVWLSWFQQKPGNIPKLLIYKASNLHTGVPSRFSGSGSGTGFTLTISSLQPEDIATYYCQQAHSYPFTFGGGTKLEIKRTVAAPSVFIFPPSDEQLKSGTASVVCLLNNFYPREAKVQWKVDNALQSGNSQESVTEQDSKDSTYSLSSTLTLSKADYEKHKVYACEVTHQGLSSPVTKSFNRGEC | 1.86 | –
4 | sLC-Tandem-(anti-IL4xanti-IL13)-PCL1-huIgG1, IL4 arm (antibody) chain 1: not shown chain 2: DIQMTQSPASLSVSVGDTITLTCHASQNIDVWLSWFQQKPGNIPKLLIYKASNLHTGVPSRFSGSGSGTGFTLTISSLQPEDIATYYCQQAHSYPFTFGGGTKLEIKRTVAAPSVFIFPPSDEQLKSGTASVVCLLNNFYPREAKVQWKVDNALQSGNSQESVTEQDSKDSTYSLSSTLTLSKADYEKHKVYACEVTHQGLSSPVTKSFNRGEC | 0.901 | 1.42
5 | sLC-Tandem-(anti-IL4xanti-IL13)-His8-PCL1-huIgG1 with Furin, IL4 arm (antibody) chain 1: not shown chain 2: DIQMTQSPASLSVSVGDTITLTCHASQNIDVWLSWFQQKPGNIPKLLIYKASNLHTGVPSRFSGSGSGTGFTLTISSLQPEDIATYYCQQAHSYPFTFGGGTKLEIKRTVAAPSVFIFPPSDEQLKSGTASVVCLLNNFYPREAKVQWKVDNALQSGNSQESVTEQDSKDSTYSLSSTLTLSKADYEKHKVYACEVTHQGLSSPVTKSFNRGEC | 1.53 | –
6 | sLC-Tandem-(anti-IL4xanti-IL13)-PCL2-huIgG1, IL4 arm (antibody) chain 1: not shown chain 2: DIQMTQSPASLSVSVGDTITLTCHASQNIDVWLSWFQQKPGNIPKLLIYKASNLHTGVPSRFSGSGSGTGFTLTISSLQPEDIATYYCQQAHSYPFTFGGGTKLEIKRTVAAPSVFIFPPSDEQLKSGTASVVCLLNNFYPREAKVQWKVDNALQSGNSQESVTEQDSKDSTYSLSSTLTLSKADYEKHKVYACEVTHQGLSSPVTKSFNRGEC | 1.05 | 1.33
